In assay [1] the test system is oligodendrocytes and myelin in the corpus callosum. Kind of assay: Cuprizone-induced demyelination/remyelination in GFAP/tTA; TRE/IFN-γ double transgenic mice. The assay is classed as in vivo. On the procedure:
The effects of IFN-γ on demyelination were evaluated in a cuprizone animal model using transgenic mice that allow for temporally regulated delivery of IFN-γ using the tetracycline controllable system (Lin, et al. (2004) J. Neurosci. 24: 10074-10083). The transgenic mice were generated by mating line 110 GFAP/tTA mice on the C57BL/6 background with line 184 TRE/IFN-γ on the C57BL/6 background to produce GFAP/tTA; TRE/IFN-γ double transgenic mice (Lin, et al. (2004) J. Neurosci. 24: 10074-10083). Transcriptional activation of the TRE/IFN-γ transgene by tTA was repressed in the control (DOX+) mice by adding 0.05 mg/ml doxycycline to the drinking water which was provided ad libitum from the day of conception. The DOX+ double transgenic mice were GFAP/tTA; TRE/IFN-γdouble transgenic animals fed cuprizone chow and never released from the doxycycline solution. DOX− double transgenic mice were GFAP/tTA; TRE/IFN-γdouble transgenic animals fed cuprizone chow and released from doxycycline to induce expression of IFN-γ.
Demyelination was induced in 6-week-old DOX+ and DOX− male mice by feeding the mice a diet of milled mouse chow containing 0.2% cuprizone (Sigma-Aldrich, St. Louis, Mo.) for up to 6 weeks. Subsequently, both groups of mice were returned to a normal diet for up to 3 weeks to allow remyelination to occur. All animal procedures were conducted in complete compliance with the NIH Guide for the Care and Use of Laboratory Animals and were approved by the Institutional Animal Care and Use Committee of The University of Chicago.
The effect of INF-γ on the population of oligodendrocytes was evaluated by immunohistochemical analysis of oligodendrocytes using an anti-CC1 antibody (APC7, 1:50; EMD Biosciences, Inc., La Jolla, Calif.) Immunohistochemistry was performed on brain sections obtained from mice that were first anesthetized mice and perfused through the left cardiac ventricle with 4% paraformaldehyde in 0.1M PBS. The brains were removed, postfixed with paraformaldehyde, cryopreserved in 30% sucrose, embedded in OCT and frozen on dry ice. Frozen sections were cut in a cryostat at a thickness of 10 μm. […] Fluorescent stained sections were mounted with Vectashield mounting medium with DAPI (Vector Laboratories) and visualized with a Zeiss Axioplan fluorescence microscope. […] Immunopositive cells were quantified by counting positive cells within the median of the corpus callosum, confined to an area of 0.04 mm^2. Only those cells with nuclei observable by DAPI staining were counted. Each MBP immunostaining slide was scored on a scale of zero to four. […]

For assay [2] the test system is unchanged. Kind of assay: Cuprizone remyelination in double transgenic mice on PERK+/+ or PERK+/− background. The following applies: for remyelinated axons: 9 weeks. The assay is classed as in vivo. An excerpt: The involvement of the ER stress response in the reduction caused by IFN-γ to remyelinate lesions was examined in transgenic mice that were generated to be heterozygous for a loss of function mutation in pancreatic ER kinase (PERK) (Harding, et al., (2001) Mol Cell 7:1153-1163), and to be temporally regulated for expressing INF-γ in the CNS. TRE/IFN-γ mice were first crossed with PERK+/− mice (Harding, et al. (2001) Mol. Cell 7: 1153-1163) on the C57BL/6 background to generate mice the carry the PERK mutation, and the resulting progeny were crossed to GFAP/tTA mice to obtain transgenic mice that were heterozygous for the PERK mutation. The effect of PERK on remyelination in the presence or absence of INF-γ was evaluated as evaluated as a function of the level of myelination of oligodendrocytes in remyelinating lesions and the number of oligodendrocytes present in the remyelinating lesion.
The extent of remyelination was assessed as described in the previous examples in the corpus callosum of PERK+/+ and PERK+/− mice that were made to express INF-γ (DOX−PERK+/+ and DOX− PERK+/−), and in mice in which the expression of INF-γ was repressed (DOX+PERK+/+ and DOX+PERK+/−). Remyelination was determined by electron microscopy, and was related to the number of CC1 positive oligodendrocytes and the level of caspase-3 expression in the corpus callosum of all animals. The level of caspase-3 was determined by immunohistochemical methods using anti capsase antibody (active-casoase-3 antibody, 1:50; Cel Signaling Technology) and according to the method described in Example 1. Demyelination was induced in six-week-old GFAP/tTA; TRE/IFN-γ double transgenic mice on a PERK+/− background that had been maintained on doxycycline, by simultaneously treating the mice with 0.2% cuprizone and releasing them from doxycycline (DOX−PERK+/−). Remyelination was allowed to occur by withdrawing cuprizone at week 6.

B1: IFN-γ: pleotropic cytokine secreted by activated T lymphocytes and natural killer cells; recombinant rat IFN-γ added to cultures or transgenically expressed in mouse CNS (protein, UniProt P01581 23-156, looked up)
Interferon gamma: QGTLIESLESLKNYFNSSSMDAMEGKSLLLDIWRNWQKDGNTKILESQIISFYLRLFEVLKDNQAISNNISVIESHLITNFFSNSKAKKDAFMSIAKFEVNNPQIQHKAVNELIRVIHQLSPESSLRKRKRSRC
On to B1, for which the remyelinated axons is 26.9%±7% in assay [1] (DOX− mice (IFN-γ expressed), corpus callosum, week 8, control DOX+ 48.4%±4%); 31.1%±7.6% in assay [2] (DOX−PERK+/+ mice, DOX+ 54.0%±4.3%); 15.6%±7.6% in assay [2] (DOX−PERK+/− mice, 3 weeks after cuprizone removal). In addition, the “CC1 positive oligodendrocytes within the corpus callosum” value in assay [1] (DOX− mice, 8 weeks, control DOX+ 228.7±20.2) is listed as 78±12.7 /0.04 mm2. For the same molecule, the “NG2 positive OPCs in the corpus callosum” value in assay [1] (DOX− mice, week 4 of cuprizone treatment, DOX+ 19±2.12) was 46±4.24 /0.04 mm^2; in assay [1] (DOX− mice, week 6, DOX+ 80±2.8), 31.5±0.71 /0.04 mm^2. In assay [2] (DOX−PERK+/+ mice, week 9, DOX+PERK+/+ 283.2±27.7), the “number of CC1 positive oligodendrocytes” value is recorded as 123.2±27.5 /0.04 mm^2. The “number of oligodendrocytes positive for caspase-3, DOX−PERK+/− versus DOX−PERK+/+” value in assay [2] (corpus callosum, week 9) is reported as 2.3 times.

Values taken from patent publication US8415106B2, “Cell-based screen for agents useful for reducing neuronal demyelination or promoting neuronal remyelination” (Myelin Repair Foundation, Inc., priority 2005, dated 2013).
